The values that follow come from US20180171002A1 (BERG, published 2018).

In experiment [1] the target is E.Coli-expressed FLNC (aa 1438-2128) (Homo sapiens (Human)) (UniProt Q14315). Nature of the experiment: ELISA, positive control. Background: In an ELISA, binding on a coated surface is turned into a signal by an enzyme label.
The target of experiment [2] is E.Coli-expressed partial FLNA (aa 1443-2131) (human) (UniProt P21333). Put plainly: ELISA, positive control.
In experiment [3] the target is T1, HEK293-expressed full length FLNA (UniProt: P21333) (human, UniProt P21333 2-2647).
T1 construct: Full length protein; also called full length human FLNA protein; Full length filamin A
Nature of the experiment: ELISA, positive control.

In experiment [4] the target is E.Coli-expressed FLNC (aa 1438-2128) (Homo sapiens (Human)) (UniProt Q14315). Nature of the experiment: ELISA, negative control.
The target of experiment [5] is E.Coli-expressed partial FLNA (aa 1443-2131) (human) (UniProt P21333). Put plainly: ELISA, negative control.
For experiment [6], the target named is E.Coli-expressed partial FLNB (aa 1416-2089) (Homo sapiens (Human)) (UniProt O75369). Put plainly: ELISA, negative control.
For experiment [7], the target named is HEK293-expressed full length FLNB (Homo sapiens (Human)) (UniProt O75369). Put plainly: ELISA, negative control.
In experiment [8] the target is T1, HEK293-expressed full length FLNA …. Nature of the experiment: ELISA, negative control.
Experiment [9] has as its target T2, E.Coli-expressed partial FLNA (aa 1443-2131) (human, UniProt P21333 1443-2131).
T2 construct: also called FLNA Partial; partial FLNA protein
T2 sequence: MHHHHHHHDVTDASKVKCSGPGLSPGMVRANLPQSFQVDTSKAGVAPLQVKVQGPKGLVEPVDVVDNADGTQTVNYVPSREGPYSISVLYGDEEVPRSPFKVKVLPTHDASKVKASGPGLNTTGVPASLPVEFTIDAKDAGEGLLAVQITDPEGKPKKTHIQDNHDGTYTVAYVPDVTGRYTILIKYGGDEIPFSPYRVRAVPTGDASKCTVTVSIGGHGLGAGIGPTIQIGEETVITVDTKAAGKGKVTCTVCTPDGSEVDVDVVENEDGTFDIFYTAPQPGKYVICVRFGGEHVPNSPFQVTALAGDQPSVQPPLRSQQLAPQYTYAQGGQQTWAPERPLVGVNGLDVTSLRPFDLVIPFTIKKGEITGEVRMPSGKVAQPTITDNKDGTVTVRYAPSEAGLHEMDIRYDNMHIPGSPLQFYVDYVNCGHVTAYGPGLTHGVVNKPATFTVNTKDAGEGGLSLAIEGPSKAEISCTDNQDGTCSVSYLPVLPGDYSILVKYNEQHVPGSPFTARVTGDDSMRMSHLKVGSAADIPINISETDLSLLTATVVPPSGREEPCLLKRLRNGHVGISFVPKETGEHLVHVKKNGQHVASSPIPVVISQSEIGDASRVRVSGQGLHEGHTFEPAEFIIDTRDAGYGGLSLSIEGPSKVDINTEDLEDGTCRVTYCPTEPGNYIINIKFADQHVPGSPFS
Put plainly: ELISA, hybridoma supernatant on protein. How it is done:
(§1) Next, supernatants from clone 2C12, 3F4, and 6E3 were tested to bind the above proteins by ELISA. FLNA proteins were tested for specificity, while homologous proteins FLNB and FLNC from the same family were tested for cross-reactivity. 10% pooled normal human serum was also included for any unexpected non-specific binding.

Experiment [10] addresses T1, HEK293-expressed full length FLNA …. Nature of the experiment: ELISA, hybridoma supernatant on protein. How it is done: as §1
Experiment [11] deals with T3, E.Coli-expressed FLNC (aa 1438-2128) (Homo sapiens (Human), UniProt Q14315 1438-2128).
T3 construct: also called Partial filamin C
T3 sequence: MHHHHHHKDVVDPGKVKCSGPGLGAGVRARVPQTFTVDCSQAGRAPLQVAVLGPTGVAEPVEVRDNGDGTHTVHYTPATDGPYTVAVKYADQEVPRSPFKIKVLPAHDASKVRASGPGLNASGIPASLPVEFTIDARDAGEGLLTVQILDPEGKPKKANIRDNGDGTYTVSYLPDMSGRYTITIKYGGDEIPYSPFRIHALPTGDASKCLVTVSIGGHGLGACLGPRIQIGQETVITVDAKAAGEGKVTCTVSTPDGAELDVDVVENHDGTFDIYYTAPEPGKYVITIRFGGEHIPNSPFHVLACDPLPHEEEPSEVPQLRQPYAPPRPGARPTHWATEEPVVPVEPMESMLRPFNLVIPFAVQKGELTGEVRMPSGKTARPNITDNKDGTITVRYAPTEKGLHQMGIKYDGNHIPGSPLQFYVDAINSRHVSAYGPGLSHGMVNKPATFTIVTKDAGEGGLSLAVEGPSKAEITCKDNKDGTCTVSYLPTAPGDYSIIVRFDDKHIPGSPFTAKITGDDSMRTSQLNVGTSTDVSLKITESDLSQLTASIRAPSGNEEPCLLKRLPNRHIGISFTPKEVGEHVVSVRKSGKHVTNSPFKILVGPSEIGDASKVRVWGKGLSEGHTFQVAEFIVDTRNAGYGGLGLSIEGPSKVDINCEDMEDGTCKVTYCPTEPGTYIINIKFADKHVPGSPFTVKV
Nature of the experiment: ELISA, hybridoma supernatant on protein. How it is done:
as §1

Experiment [12] addresses T2, E.Coli-expressed partial FLNA (aa …). Put plainly: BLI (Octet), antibody on AMC anti-mIgG Fc capture sensor, FLNA Partial at 100 nM. The procedure: Kinetics studies with ForteBio Bio-Layer Interferometry (BLI) technology were carried out. BLI is a label-free technology for measuring biomolecular interactions. It is an optical analytical technique that analyzes the interference pattern of white light reflected from two surfaces: a layer of immobilized protein on the biosensor tip, and an internal reference layer. Any change in the number of molecules bound to the biosensor tip causes a shift in the interference pattern that can be measured in real-time. The Octet analysis results are shown as below in Table 3.

T1 sequence (P21333 other isoform, or with tags, fused parts or gaps limits assumed): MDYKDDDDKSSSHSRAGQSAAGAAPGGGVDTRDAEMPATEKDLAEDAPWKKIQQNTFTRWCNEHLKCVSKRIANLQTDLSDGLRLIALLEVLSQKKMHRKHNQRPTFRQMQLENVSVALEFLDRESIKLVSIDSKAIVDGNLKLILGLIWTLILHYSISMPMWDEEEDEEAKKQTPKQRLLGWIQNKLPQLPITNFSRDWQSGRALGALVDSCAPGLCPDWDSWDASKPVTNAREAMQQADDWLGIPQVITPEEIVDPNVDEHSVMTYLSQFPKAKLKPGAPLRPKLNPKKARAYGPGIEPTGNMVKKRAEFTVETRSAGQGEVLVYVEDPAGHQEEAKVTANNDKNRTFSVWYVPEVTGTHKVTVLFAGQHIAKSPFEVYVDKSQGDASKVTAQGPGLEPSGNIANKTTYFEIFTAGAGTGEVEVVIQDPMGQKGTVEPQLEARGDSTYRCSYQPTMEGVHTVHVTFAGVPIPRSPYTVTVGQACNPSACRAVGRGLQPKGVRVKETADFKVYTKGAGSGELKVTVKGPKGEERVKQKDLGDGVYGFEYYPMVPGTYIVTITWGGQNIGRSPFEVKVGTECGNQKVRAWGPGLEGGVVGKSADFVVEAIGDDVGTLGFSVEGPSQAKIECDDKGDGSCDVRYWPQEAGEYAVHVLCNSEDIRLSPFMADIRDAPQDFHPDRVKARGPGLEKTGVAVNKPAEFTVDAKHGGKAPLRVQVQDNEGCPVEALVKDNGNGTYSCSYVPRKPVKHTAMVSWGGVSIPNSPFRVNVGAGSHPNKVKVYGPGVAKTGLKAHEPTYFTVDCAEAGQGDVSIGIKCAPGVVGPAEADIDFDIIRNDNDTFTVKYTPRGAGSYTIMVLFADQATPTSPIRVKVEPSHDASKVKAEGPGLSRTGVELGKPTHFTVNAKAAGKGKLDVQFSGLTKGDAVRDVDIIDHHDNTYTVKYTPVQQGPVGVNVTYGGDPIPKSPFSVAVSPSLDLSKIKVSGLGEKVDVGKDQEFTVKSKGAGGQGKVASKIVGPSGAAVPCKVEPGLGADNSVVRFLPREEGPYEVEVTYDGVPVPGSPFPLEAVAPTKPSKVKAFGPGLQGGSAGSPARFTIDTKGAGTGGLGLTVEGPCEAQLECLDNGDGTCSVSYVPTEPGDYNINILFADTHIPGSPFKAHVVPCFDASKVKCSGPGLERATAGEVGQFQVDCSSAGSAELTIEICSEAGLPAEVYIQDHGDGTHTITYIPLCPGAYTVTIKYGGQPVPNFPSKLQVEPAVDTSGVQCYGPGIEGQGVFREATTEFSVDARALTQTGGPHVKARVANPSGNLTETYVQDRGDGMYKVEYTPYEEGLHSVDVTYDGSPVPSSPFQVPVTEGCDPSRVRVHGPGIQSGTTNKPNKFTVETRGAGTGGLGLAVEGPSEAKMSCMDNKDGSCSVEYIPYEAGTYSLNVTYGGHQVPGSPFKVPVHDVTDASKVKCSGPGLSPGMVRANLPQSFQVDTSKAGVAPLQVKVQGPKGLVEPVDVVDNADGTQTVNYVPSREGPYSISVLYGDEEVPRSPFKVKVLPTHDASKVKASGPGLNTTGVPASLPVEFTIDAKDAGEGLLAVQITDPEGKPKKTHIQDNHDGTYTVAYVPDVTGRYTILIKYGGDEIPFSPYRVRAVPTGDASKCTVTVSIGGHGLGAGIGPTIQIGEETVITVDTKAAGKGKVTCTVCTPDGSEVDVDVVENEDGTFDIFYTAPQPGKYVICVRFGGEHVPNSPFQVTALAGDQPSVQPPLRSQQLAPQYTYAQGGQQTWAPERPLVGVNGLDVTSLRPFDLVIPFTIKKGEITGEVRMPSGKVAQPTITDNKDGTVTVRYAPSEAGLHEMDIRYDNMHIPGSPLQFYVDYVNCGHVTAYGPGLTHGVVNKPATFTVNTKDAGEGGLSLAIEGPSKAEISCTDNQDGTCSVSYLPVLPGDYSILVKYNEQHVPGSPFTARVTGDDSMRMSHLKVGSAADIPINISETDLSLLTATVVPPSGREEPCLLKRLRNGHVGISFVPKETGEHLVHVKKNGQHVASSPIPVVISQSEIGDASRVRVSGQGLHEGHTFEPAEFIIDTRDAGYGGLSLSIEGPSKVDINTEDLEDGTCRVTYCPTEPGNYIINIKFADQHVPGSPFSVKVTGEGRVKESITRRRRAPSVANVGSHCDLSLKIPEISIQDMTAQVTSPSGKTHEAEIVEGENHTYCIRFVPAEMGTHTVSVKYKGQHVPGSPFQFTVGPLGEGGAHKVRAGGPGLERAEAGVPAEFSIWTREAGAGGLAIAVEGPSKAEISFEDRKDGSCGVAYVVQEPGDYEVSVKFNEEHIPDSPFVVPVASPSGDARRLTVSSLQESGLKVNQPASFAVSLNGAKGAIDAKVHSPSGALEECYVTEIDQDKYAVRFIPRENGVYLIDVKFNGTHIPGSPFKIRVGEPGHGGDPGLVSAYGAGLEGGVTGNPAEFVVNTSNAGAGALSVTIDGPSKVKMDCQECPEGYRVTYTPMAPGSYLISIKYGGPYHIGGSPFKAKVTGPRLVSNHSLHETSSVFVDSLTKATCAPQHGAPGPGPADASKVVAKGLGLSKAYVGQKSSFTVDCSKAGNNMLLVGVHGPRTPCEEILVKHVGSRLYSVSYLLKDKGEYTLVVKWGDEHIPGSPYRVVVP
E.Coli-expressed partial FLNB (aa 1416-2089) (Homo sapiens (Human)), sequence (O75369 1416-2089, tags left off): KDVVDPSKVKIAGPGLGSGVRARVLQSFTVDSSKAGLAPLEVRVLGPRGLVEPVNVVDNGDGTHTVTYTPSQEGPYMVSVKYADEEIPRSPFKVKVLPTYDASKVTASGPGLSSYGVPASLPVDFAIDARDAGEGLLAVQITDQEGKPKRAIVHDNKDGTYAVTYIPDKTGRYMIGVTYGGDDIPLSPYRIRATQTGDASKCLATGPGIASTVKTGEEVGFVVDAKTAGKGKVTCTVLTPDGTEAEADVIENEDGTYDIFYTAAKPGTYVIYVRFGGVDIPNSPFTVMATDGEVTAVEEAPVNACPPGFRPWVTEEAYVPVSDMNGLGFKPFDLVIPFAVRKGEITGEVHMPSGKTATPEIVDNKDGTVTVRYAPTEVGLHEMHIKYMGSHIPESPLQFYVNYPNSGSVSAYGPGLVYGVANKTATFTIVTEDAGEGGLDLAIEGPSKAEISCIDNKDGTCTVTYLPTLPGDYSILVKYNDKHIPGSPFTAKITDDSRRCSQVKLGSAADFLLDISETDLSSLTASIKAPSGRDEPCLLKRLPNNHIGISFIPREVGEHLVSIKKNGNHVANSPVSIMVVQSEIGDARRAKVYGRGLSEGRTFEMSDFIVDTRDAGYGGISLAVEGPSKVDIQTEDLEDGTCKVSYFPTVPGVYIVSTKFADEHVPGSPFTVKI

For the molecule “Pos ctl (positive control of the ELISA of Table 2)”, the ELISA test result (signal) was found to be 1.7 in experiment [1], 3.85 in [2] and 3.09 in experiment [3].

As for “Neg ctl (negative control of the ELISA of Table 2)”, the ELISA test result (signal) in [4] is 0.042; in [5], 0.072; in experiment [6], 0.069; in experiment [7], 0.072; in experiment [8] it was 0.043.

B1: anti-FLNA murine monoclonal antibody 2C12 (antibody, IgG1, V domains shown)
VH: QVQLKQSGPGLVQPSQSLSITCTVSGFSLTNYGVHWVRQSPGKGLEWLGVIWRGGSTDYNAAFMSRLSITKDNSKSQVFFKMNSLQADDTAIYFCALRGNYVHYYLMDYWGQGTSVTVSS
VL: DIQVTQTPSSLSASLGDRVTISCRASQDISNYLNWYQQKPDGTVKLLIYYTSRLHSGVPSRFSGSGSGTDYSLTISNLDQEDIATYFCQQGNTLPPTFGGGTNLEIK
notes: also called clone 2C12
On to B1, for which the “ELISA test result (signal)” value in experiment [9] was 3.32. For the same molecule, the “ELISA test result (signal)” value in experiment [10] turned out to be 1.87. Moreover, the “ELISA test result (signal)” value in experiment [11] was 0.044. In [12], this molecule came in with a Kd of 4.82 nM, a Response of 0.222, a koff of 0.000381 s⁻¹ and a kon of 79000 M⁻¹ s⁻¹.

B2: anti-FLNA murine monoclonal antibody 6E3 (antibody, IgG1, V domains shown)
VH: QVQLQQSGAELMKPGASVKLSCKATGYTFTGYWIEWVKQRPGHGLEWIGEILPGNGSTNCNEKFKGKATFTATTSSNTAYMQLSSLTTEDSAIYYCTTVSYWGQGTTLTVSS
VL: DVVMTQTPLSLPVSLGDQASISCRSSQSLVHSNGNTYLHWYLQKPGQSPNLLIYKVSNRFSGVPDRFTGSGSGTDFTLKISRVEAEDLGVYFCSQSTHVPFTFGSGTKLEIK
notes: also called clone 6E3; mab 6E3
As to B2, the “ELISA test result (signal)” value in experiment [9] was 2.57. In addition, the “ELISA test result (signal)” value in experiment [10] worked out at 2.2. The “ELISA test result (signal)” value in [11] turned out to be 0.041. In experiment [12], this molecule registered a Kd of 4.02 nM, a Response of 0.33, a koff of 0.000784 s⁻¹ and a kon of 195000 M⁻¹ s⁻¹.

B3: anti-FLNA murine monoclonal antibody 3F4 (antibody, IgG2b, V domains shown)
VH: EVQLQESGPGLAKPSQTLSLTCSVTGYSITSNYWNWIRKFPGNKLEYMGYISFSGSTYYNPSLKSRISITRDTSKNQYYLQLNSVTTEDTATYYCARWNYYAMDYWGQGTSVTVSS
VL: DFLLTQSPAILSVSPGERVSFSCRASQSIGTNIHWYQQRTNGSPRLLIKFASESISGIPSRFSGSGSGTDFTLTINSVESEDIADYYCQQSNSWPYTFGGGTKLEIK
notes: also called clone 3F4
Regarding B3, in [9], the “ELISA test result (signal)” value was 3.04. The “ELISA test result (signal)” value in experiment [10] turned out to be 2.35. In addition, the “ELISA test result (signal)” value in [11] was 0.042. In experiment [12], this molecule displayed a Kd of 0.999 nM, a Response of 0.283, a koff of 0.000804 s⁻¹ and a kon of 805000 M⁻¹ s⁻¹.

By Kd is commonly meant a measure of binding affinity in units of concentration. A high value points to a looser complex. The term koff denotes a measure of how fast the partners let go of each other. A lower koff goes with slow dissociation. As usually defined, the kon is the rate constant with which the complex forms. High values mean faster complex formation, low ones slower complex formation.
